The source of these data is PMC7866390, “A Novel Multiprotein Bridging Factor 1-Like Protein Induces Cyst Wall Protein Gene Expression and Cyst Differentiation in Giardia lamblia”.

The labels stand for the following.
T1: MBF1 (Giardia lamblia, UniProt A8BZ03 1-107)
T1 sequence: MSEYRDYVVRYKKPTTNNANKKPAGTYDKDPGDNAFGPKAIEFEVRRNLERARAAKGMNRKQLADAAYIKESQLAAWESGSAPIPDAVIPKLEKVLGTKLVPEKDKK

B1: 18S-30/-1 (dsDNA)
DNA 1: GGCGCCCGGCCCGCGGCGCCCGCGCCCGGC
DNA 2: GCCGGGCGCGGGCGCCGCGGGCCGGGCGCC
B2: cwp3-60/-31 (dsDNA)
DNA 1: GTAGACTTTGAGTTACTTAGCTCTACAGTT
DNA 2: AACTGTAGAGCTAAGTAACTCAAAGTCTAC
B3: cwp2-60/-31 (dsDNA)
DNA 1: TAGACTGATGCTGTAGAGGTCAACAGATAA
DNA 2: TTATCTGTTGACCTCTACAGCATCAGTCTA
B4: myb2-30/-1 (dsDNA)
DNA 1: TACTAAAATAATAATTACTCTGTACTGCTA
DNA 2: TAGCAGTACAGAGTAATTATTATTTTAGTA
B5: poly(A) with TT insertion (dsDNA)
DNA 1: AAAAAAAAAAATTAAAAAAAAAA
DNA 2: TTTTTTTTTTAATTTTTTTTTTT
B6: cwp2-30/+8 (dsDNA)
DNA 1: CAGCAGCTCAACAGTGGCTGGGAAAATAAAATGATCGC
DNA 2: GCGATCATTTTATTTTCCCAGCCACTGTTGAGCTGCTG
B7: poly(A) (dsDNA)
DNA 1: AAAAAAAAAAAAAAAAAAAAAAA
DNA 2: TTTTTTTTTTTTTTTTTTTTTTT
B8: poly(A) with T insertion (dsDNA)
DNA 1: AAAAAAAAAAATAAAAAAAAAAA
DNA 2: TTTTTTTTTTTATTTTTTTTTTT
B9: cwp1-90/-46 (dsDNA)
DNA 1: CTGGCTAACAGTCTACAGTCTACAATTTACAGTATACAATCTACA
DNA 2: TGTAGATTGTATACTGTAAATTGTAGACTGTAGACTGTTAGCCAG
B10: ran-51/-20 (dsDNA)
DNA 1: TAAAATAAATTAAATCGAAATTAAAACTTTAA
DNA 2: TTAAAGTTTTAATTTCGATTTAATTTATTTTA
B11: cwp1-45/-1 (dsDNA)
DNA 1: GTTTACAACTCTCAGATCAAGAAACACAGAAATAAAATATCAGGG
DNA 2: CCCTGATATTTTATTTCTGTGTTTCTTGATCTGAGAGTTGTAAAC

In the first data set the target is T1, MBF1. Nature of the data set: EMSA; EMSA, 5 ng purified protein, 5'-end-labeled ds oligonucleotides, 6% polyacrylamide gel; buffer, salt, pH and temperature not given (cited to ref 19). The following applies: protein: recombinant; tags: C-terminal V5 and His (pET101/D-TOPO). A general note: A gel shift assay detects complexes by their altered migration in electrophoresis.
With B1, the binding result is reported as “no binding”.

Staying with this data set, now noted: protein: recombinant; tags: C-terminal V5 and His (pET101/D-TOPO); label: 5'-32P.
For B2, the binding result was “binds”. For the molecule B3, the binding result is on record as “binds”.

As to B4, the binding result is “binds”.

On to B5, for which the binding result is given as “binds”. On the same count and under the same terms, the result for B6 reads “binds”. On the same count and under the same terms, then B7, with “binds”.

As to B8, the binding result is recorded as “binds”. Still for that read-out and setting: then B9, with “binds”; and B10, with “binds”.

Another data set concerns the target T1, MBF1. As to the kind of experiment: EMSA; supershifted by anti-V5-HRP; competed by 200-fold cold cwp1-45/-1; EMSA, 5 ng purified protein, 5'-end-labeled ds oligonucleotides, 6% polyacrylamide gel; buffer, salt, pH and temperature not given (cited to ref 19). The note with it: protein: recombinant; tags: C-terminal V5 and His (pET101/D-TOPO); label: 5'-32P.
Regarding B11, the binding result is “binds”.
